Among the data in EP1034789A1 are Surface Bound MIP-1α values, retold here.

For this test, the target named is human MIP-1α (human) (UniProt P10147). Description: 125I-MIP-1α bound to human monocytic cells, Exp. 1, 200X molar excess M-T1.
Sequence of UniProt P10147 (P10147 24-92 limits assumed): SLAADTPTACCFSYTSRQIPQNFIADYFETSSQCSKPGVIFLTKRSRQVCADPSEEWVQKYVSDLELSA

myxoma T1 protein (type-2 CBP) registered a Surface Bound MIP-1α of 978 cpm.
